Test results taken from patent US6673902B2, “Cyclin D binding factor, and uses thereof” (St. Jude Children's Research Hospital, priority 1996, dated 2004).

B1: cyclin H: cyclin coexpressed with DMP1 (protein, UniProt Q61458 1-323, looked up)
Cyclin-H: MYHSSSQKRHWTFASEEQLARLRADANRKFKCKAVANGKVLPNDPVFLEPHEELTLCKYYEKRLLEFCSVFKPAMPRSVVGTACMYFKRFYLNNSVMEYHPRIIMLTCAFLACKVDEFNVSSPQFVGNLRESPLGQERALEQILEYELLLIQQLNFHLIVHNPYRPFEGFLIDIKTRYPMLENPEILRKTADDFLSRIALTDAYLLYTPSQIALTAILSSASRAGITMESYLSESLMLKENRTCLSQLLDIMKSMRNLVKKYEPPRSDEVAVLKQKLERCHSSDLALNAVTKKRKGYEDDDYVSKKPKQEEEEWTDDDLVDSL
B2: Ets1: Ets family transcription factor (protein, UniProt P27577 1-440, looked up)
Protein C-ets-1: MKAAVDLKPTLTIIKTEKVDLELFPSPDMECADVPLLTPSSKEMMSQALKATFSGFTKEQQRLGIPKDPRQWTETHVRDWVMWAVNEFSLKGVDFQKFCMSGAALCALGKECFLELAPDFVGDILWEHLEILQKEDVKPYQVNGANPTYPESCYTSDYFISYGIEHAQCVPPSEFSEPSFITESYQTLHPISSEELLSLKYENDYPSVILQDPLQTDTLQTDYFAIKQEVLTPDNMCLGRASRGKLGGQDSFESVESYDSCDRLTQSWSSQSSFNSLQRVPSYDSFDYEDYPAALPNHKPKGTFKDYVRDRADLNKDKPVIPAAALAGYTGSGPIQLWQFLLELLTDKSCQSFISWTGDGWEFKLSDPDEVARRWGKRKNKPKMNYEKLSRGLRYYYDKNIIHKTAGKRYVYRFVCDLQSLLGYTPEELHAMLDVKPDAD

Tests used:
Format in all cases: cell-based, mouse
[1] = test system: DMP1-responsive promoter (pGL2BS2); assay: Transactivation of luciferase reporter plasmid under control of a DMP1-responsive promoter in NIH-3T3 fibroblasts; details: Table 4; DMP1 coexpressed with the additive named as label (DMP1 row: no additive); vector without insert set to 1.0
Description: Coexpression of a D-type cyclin with DMP1 overrides the ability of DMP1 to transactivate a luciferase gene under the control of an artificial DMP1-responsive promoter (Table 4), as well as the ability of DMP1 to inhibit cell growth.

[2] = test system: 281 bp ARF promoter fragment; assay: Transactivation of ARF promoter-luciferase reporter in NIH-3T3 cells; details: NIH-3T3, 281 bp ARF promoter fragment-luciferase
Experimental: Transactivation assays. NIH-3T3 cells were transfected with 4 μg of pGL2-ARFpro BamHI or its DMP1 binding site mutant, with or without increasing amount of pFLEX-DMP1, pEVRFO-Ets1, pCMV-Ets2, pRcRSV-Elfl, pdEB-Fli1, p(IEB-EWS-Fli1 or pCMV-E2F-1 (89-437), and 4 μg β-actin SEAP control vectors [Inoue and Sherr, Mol. Cell. Biol. 18: 1590-1600 (1998); Inoue et al., J. Biol. Chem. 273:29188-29194 (1998); Davis and Roussel, Gene 171:265-269 (1996); Baily et al., Mol. Cell. Biol. 14:3230-3241 (1994)]. Transfections and normalization of luciferase levels with internal control SEAP levels were performed as described [Inoue and Sherr, Mol. Cell. Biol. 18:1590-1600 (1998)].
Similarly, DMP1 deletion mutants defective in transactivation [Inoue and Sherr, Mol. Cell. […] Mutation of the DMP1 binding site within the ARF promoter [changing CCCGGATGC, (SEQ ID NO:33) to CCCGTCGAC, (SEQ ID NO:42)] also completely abolished transactivation by wild-type DMP1 (FIG. 14C, mutant reporter). Therefore, sequences within the −189 to −181 ARF promoter segment were the only ones responsible for DMP1-mediated transactivation. Although Ets1 could bind to a 23 base pair oligonucleotide containing the DMP1 consensus site (FIG. 14B), several Ets proteins were unable to induce significant reporter gene expression from the more complex 281 base pair ARF promoter (FIG. 14C). […]

ARF-null MEFs = assay: BrdU incorporation / cell cycle arrest in ARF-null MEFs; details: retroviral infection
Experimental: (§1) BrdU incorporation and immunofluorescence. Wild-type or ARF-null MEFs (4×10^4 cells) were seeded on gelatin-coated coverslips 16 hours before virus infection. Cells were infected three times with empty vector, or vectors expressing murine DMP1, human c-Myc, human E2F-1, or human Ets1. Cells were labeled 36 hours after virus infection with bromodeoxyuridine (BrdU, Sigma) for 14 hours in complete medium. For pulse labeling, MEFs were treated with 2 μM4-HT for 36 hours and labeled with BrdU for three hours at different intervals throughout the inductive phase. Cells were fixed in ice-cold methanol-acetone (1:1) for 10 min at −20° C. and then were stained with affinity-purified antibodies to DMP1 (AF) [Hirai and Sherr, Mol. Cell. […]
(§2) Based on the above observations, it was determined as to whether introduction of DMP1 would induce synthesis of the endogenous ARF protein in normal diploid fibroblast strains. […] Although the blot was normalized for protein input, the levels of p19^ARF induced by DMP1 were calculated to be 2-fold higher than those induced by Myc, because fewer cells were productively infected with the DMP1 virus in this experiment (see FIG. 15A).

wild-type MEFs = assay: BrdU incorporation / cell cycle arrest in wild-type MEFs; details: retroviral infection
Experimental: as §1, §2

| Molecule | Luciferase Activity [1] | ARF promoter reporter gene expression [2] | cell cycle arrest (ARF-null MEFs) | cell cycle arrest (wild-type MEFs) |
| --- | --- | --- | --- | --- |
| B1 | 5.5 | – | – | – |
| B2 | – | slightly inhibitory | behaved indistinguishably from those infected with the control vector | behaved indistinguishably from those infected with the control vector |
